From publication PMC5105194 (Nature Communications, 2016)

Molecular target: full-length human VPS29 (human, UniProt Q9UBQ0 1-182)
Assay: ITC; TBC proteins (100∼200 μM) injected into retromer proteins (8–16 μM); 20 °C; 20 mM Tris pH 8, 200 mM NaCl, 5 mM βME; one set of sites model
Conditions: both partners purified

B1: TBC1d5 Ins1 peptide (peptide)
peptide: GQQDLMINNPLSQDEGSLWNKFFQDKE
notes: TBC1d5 residues 132–158 (Insertion 1 region); The limits are told for the crystallised peptide; source: expressed as MBP fusion, purified (Amylose resin, TEV cleavage, Ni-NTA, Superdex 75); not shown: His6, C-terminal, kept
  binding result: binds
